The experiment addresses T1, Amylin 3(a) receptor (human calcitonin receptor (CTa) with RAMP-3) (human) (UniProt P30988).
T1 sequence (looked up) 1: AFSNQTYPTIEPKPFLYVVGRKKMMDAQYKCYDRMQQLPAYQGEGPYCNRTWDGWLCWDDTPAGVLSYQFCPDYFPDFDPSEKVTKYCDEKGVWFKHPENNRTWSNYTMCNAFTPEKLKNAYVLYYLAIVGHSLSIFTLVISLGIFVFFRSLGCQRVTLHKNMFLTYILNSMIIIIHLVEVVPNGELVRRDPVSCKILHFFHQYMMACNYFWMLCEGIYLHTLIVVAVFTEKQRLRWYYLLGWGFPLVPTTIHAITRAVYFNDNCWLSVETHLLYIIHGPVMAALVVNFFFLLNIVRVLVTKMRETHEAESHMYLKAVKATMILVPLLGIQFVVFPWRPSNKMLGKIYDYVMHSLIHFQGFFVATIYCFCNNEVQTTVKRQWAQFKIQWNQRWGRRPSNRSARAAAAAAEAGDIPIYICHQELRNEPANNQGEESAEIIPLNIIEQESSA
T1 sequence (looked up) 2: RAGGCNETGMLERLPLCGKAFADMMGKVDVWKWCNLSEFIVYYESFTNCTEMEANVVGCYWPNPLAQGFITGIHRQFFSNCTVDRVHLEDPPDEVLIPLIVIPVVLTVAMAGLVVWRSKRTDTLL
In words: cell-based or functional assay.

*1 amine or outer side, *2 acyl side, *3 side chain or, on linkers, in order; H or OH if unused. Bridges are numbered along the chain shown (N, C = ends). The star is where a group is joined. C20 diacid = O=C(O)CCCCCCCCCCCCCCCCCCC(=O)*; γGlu = O=C(O)[C@H](CCC(=O)[*:2])N[*:1]

B1: N-alpha-[(S)-4-Carboxy-4-(19-carboxynonadecanoylamino)butyryl]-Glu-His-His-[Arg1,His17]-pramlintide (peptide)
peptide: {C20 diacid-γGlu}-EHHRCNTATCATQRLANFLHHSSNNFGPILPPTNVGSNTY-NH2
modifications: disulfide 5-10
SMILES: CC[C@H](C)[C@H](NC(=O)[C@@H]1CCCN1C(=O)CNC(=O)[C@H](Cc1ccccc1)NC(=O)[C@H](CC(N)=O)NC(=O)[C@H](CC(N)=O)NC(=O)[C@H](CO)NC(=O)[C@H](CO)NC(=O)[C@H](Cc1c[nH]cn1)NC(=O)[C@H](Cc1c[nH]cn1)NC(=O)[C@H](CC(C)C)NC(=O)[C@H](Cc1ccccc1)NC(=O)[C@H](CC(N)=O)NC(=O)[C@H](C)NC(=O)[C@H](CC(C)C)NC(=O)[C@H](CCCNC(=N)N)NC(=O)[C@H](CCC(N)=O)NC(=O)[C@@H](NC(=O)[C@H](C)NC(=O)[C@@H]1CSSC[C@H](NC(=O)[C@H](CCCNC(=N)N)NC(=O)[C@H](Cc2c[nH]cn2)NC(=O)[C@H](Cc2c[nH]cn2)NC(=O)[C@H](CCC(=O)O)NC(=O)CC[C@H](NC(=O)CCCCCCCCCCCCCCCCCCC(=O)O)C(=O)O)C(=O)N[C@@H](CC(N)=O)C(=O)N[C@@H]([C@@H](C)O)C(=O)N[C@@H](C)C(=O)N[C@@H]([C@@H](C)O)C(=O)N1)[C@@H](C)O)C(=O)N[C@@H](CC(C)C)C(=O)N1CCC[C@H]1C(=O)N1CCC[C@H]1C(=O)N[C@H](C(=O)N[C@@H](CC(N)=O)C(=O)N[C@H](C(=O)NCC(=O)N[C@@H](CO)C(=O)N[C@@H](CC(N)=O)C(=O)N[C@H](C(=O)N[C@@H](Cc1ccc(O)cc1)C(N)=O)[C@@H](C)O)C(C)C)[C@@H](C)O
Consider B1, for which the Potency Luciferase amounted to 0.1 nM.

B2: N-alpha-[(S)-4-Carboxy-4-(19-carboxynonadecanoylamino)butyryl]-Glu-His-His-[Arg1,Arg17,Gln21]-pramlintide (peptide)
peptide: {C20 diacid-γGlu}-EHHRCNTATCATQRLANFLRHSSQNFGPILPPTNVGSNTY-NH2
modifications: disulfide 5-10
SMILES: CC[C@H](C)[C@H](NC(=O)[C@@H]1CCCN1C(=O)CNC(=O)[C@H](Cc1ccccc1)NC(=O)[C@H](CC(N)=O)NC(=O)[C@H](CCC(N)=O)NC(=O)[C@H](CO)NC(=O)[C@H](CO)NC(=O)[C@H](Cc1c[nH]cn1)NC(=O)[C@H](CCCNC(=N)N)NC(=O)[C@H](CC(C)C)NC(=O)[C@H](Cc1ccccc1)NC(=O)[C@H](CC(N)=O)NC(=O)[C@H](C)NC(=O)[C@H](CC(C)C)NC(=O)[C@H](CCCNC(=N)N)NC(=O)[C@H](CCC(N)=O)NC(=O)[C@@H](NC(=O)[C@H](C)NC(=O)[C@@H]1CSSC[C@H](NC(=O)[C@H](CCCNC(=N)N)NC(=O)[C@H](Cc2c[nH]cn2)NC(=O)[C@H](Cc2c[nH]cn2)NC(=O)[C@H](CCC(=O)O)NC(=O)CC[C@H](NC(=O)CCCCCCCCCCCCCCCCCCC(=O)O)C(=O)O)C(=O)N[C@@H](CC(N)=O)C(=O)N[C@@H]([C@@H](C)O)C(=O)N[C@@H](C)C(=O)N[C@@H]([C@@H](C)O)C(=O)N1)[C@@H](C)O)C(=O)N[C@@H](CC(C)C)C(=O)N1CCC[C@H]1C(=O)N1CCC[C@H]1C(=O)N[C@H](C(=O)N[C@@H](CC(N)=O)C(=O)N[C@H](C(=O)NCC(=O)N[C@@H](CO)C(=O)N[C@@H](CC(N)=O)C(=O)N[C@H](C(=O)N[C@@H](Cc1ccc(O)cc1)C(N)=O)[C@@H](C)O)C(C)C)[C@@H](C)O
As to B2, the Potency Luciferase was 0.1 nM.

The values above are taken from patent publication US20110105394A1 (Novo Nordisk, published 2011).
